Laboratory results taken from the supplement of paper PMC10065799, “High-throughput profiling of sequence recognition by tyrosine kinases and SH2 domains using bacterial peptide display” (eLife, 2023).

Tests used:
AncSZ = experiment: phosphorylation enrichment, bacterial display (enrichment ratio); higher = better substrate or ligand; peptides without Tyr show the background
EPHB1 = EPHB1 (UniProt P54762); experiment: as above
EPHB2 = EPHB2 (UniProt P29323); experiment: as above
FGFR1 = FGFR1 (UniProt P11362); experiment: as above
FGFR3 = FGFR3 (UniProt P22607); experiment: as above
Fer (mouse) = experiment: as above
Fes = Fes (UniProt P07332); experiment: as above
Fyn = Fyn (UniProt P06241); experiment: as above
Hck = Hck (UniProt P08631); experiment: as above
Jak2 = Jak2 (UniProt O60674); experiment: as above
MERTK = MERTK (UniProt Q12866); experiment: as above
c-Abl (mouse) = experiment: as above
c-Src = experiment: as above
Grb2 SH2 = Grb2 SH2 (UniProt P62993); experiment: SH2 binding enrichment of the phosphorylated peptide, bacterial display (enrichment ratio); higher = better substrate or ligand; peptides without Tyr show the background
SHP2-C SH2 = experiment: as above
c-Src SH2 = experiment: as above
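Wherever SH2 binding enrichment of the phosphorylated peptide, bacterial display is given: peptide library displayed on the E. coli surface as eCPX fusions, selected cells deep-sequenced, score is each peptide's frequency after selection divided by its frequency in the input.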
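Wherever phosphorylation enrichment, bacterial display is given: 11-residue human phosphosite peptides and single-mutation variants displayed on the E. coli surface, counted by deep sequencing, each peptide's frequency after selection divided by its frequency in the unselected input library; frequency after pTyr selection over input frequency; kinase dosed for 20-30% of maximal phosphorylation in three min.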

Sequence of Fes (P07332 whole entry, looked up): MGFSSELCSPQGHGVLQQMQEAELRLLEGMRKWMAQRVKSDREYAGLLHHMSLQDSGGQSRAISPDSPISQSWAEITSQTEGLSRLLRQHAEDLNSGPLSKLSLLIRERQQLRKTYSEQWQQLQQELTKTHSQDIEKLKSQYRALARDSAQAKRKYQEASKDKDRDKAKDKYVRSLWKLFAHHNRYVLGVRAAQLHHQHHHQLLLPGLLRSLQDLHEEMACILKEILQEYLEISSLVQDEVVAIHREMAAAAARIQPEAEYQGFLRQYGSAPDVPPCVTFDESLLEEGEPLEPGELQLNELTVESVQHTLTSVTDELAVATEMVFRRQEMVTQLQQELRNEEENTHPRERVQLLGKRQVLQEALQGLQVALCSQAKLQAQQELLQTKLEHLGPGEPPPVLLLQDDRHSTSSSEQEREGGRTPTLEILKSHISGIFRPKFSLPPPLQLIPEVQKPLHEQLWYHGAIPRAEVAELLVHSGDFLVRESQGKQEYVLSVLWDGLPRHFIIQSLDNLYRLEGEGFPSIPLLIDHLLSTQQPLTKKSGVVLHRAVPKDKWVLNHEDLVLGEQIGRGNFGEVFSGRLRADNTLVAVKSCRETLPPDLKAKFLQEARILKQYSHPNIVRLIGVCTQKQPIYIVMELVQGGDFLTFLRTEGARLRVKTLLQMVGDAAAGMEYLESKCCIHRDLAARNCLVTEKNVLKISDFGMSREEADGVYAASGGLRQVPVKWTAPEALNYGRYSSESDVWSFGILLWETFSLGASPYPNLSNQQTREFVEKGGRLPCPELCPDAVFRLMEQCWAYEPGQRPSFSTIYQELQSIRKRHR
Sequence of MERTK (Q12866 whole entry, looked up): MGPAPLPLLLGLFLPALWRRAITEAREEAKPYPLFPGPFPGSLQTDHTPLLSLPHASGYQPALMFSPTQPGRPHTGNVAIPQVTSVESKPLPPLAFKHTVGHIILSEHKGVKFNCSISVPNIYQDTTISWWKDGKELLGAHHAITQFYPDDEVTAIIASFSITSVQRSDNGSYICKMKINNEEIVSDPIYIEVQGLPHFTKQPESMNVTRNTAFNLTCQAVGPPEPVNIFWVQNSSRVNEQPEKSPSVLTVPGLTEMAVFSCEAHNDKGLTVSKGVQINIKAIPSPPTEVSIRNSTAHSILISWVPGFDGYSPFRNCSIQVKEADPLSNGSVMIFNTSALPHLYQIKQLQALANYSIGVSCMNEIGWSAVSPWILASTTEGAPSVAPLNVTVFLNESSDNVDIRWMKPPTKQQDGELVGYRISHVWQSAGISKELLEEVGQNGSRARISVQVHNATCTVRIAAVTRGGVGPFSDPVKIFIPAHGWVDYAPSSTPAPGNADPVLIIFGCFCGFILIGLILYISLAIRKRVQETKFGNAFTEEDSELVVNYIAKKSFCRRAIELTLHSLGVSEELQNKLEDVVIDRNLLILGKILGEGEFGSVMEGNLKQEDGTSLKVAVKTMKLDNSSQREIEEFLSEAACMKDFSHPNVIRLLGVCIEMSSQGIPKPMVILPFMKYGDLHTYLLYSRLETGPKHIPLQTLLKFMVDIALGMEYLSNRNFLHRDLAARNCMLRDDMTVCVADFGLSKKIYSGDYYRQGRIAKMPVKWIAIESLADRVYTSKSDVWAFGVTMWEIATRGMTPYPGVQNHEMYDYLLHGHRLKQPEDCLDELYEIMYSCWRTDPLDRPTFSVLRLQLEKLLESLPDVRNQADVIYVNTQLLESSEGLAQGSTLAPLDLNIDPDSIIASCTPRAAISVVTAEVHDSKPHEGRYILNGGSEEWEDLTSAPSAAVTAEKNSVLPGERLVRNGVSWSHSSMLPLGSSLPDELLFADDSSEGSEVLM
Sequence of FGFR3 (P22607 whole entry, looked up): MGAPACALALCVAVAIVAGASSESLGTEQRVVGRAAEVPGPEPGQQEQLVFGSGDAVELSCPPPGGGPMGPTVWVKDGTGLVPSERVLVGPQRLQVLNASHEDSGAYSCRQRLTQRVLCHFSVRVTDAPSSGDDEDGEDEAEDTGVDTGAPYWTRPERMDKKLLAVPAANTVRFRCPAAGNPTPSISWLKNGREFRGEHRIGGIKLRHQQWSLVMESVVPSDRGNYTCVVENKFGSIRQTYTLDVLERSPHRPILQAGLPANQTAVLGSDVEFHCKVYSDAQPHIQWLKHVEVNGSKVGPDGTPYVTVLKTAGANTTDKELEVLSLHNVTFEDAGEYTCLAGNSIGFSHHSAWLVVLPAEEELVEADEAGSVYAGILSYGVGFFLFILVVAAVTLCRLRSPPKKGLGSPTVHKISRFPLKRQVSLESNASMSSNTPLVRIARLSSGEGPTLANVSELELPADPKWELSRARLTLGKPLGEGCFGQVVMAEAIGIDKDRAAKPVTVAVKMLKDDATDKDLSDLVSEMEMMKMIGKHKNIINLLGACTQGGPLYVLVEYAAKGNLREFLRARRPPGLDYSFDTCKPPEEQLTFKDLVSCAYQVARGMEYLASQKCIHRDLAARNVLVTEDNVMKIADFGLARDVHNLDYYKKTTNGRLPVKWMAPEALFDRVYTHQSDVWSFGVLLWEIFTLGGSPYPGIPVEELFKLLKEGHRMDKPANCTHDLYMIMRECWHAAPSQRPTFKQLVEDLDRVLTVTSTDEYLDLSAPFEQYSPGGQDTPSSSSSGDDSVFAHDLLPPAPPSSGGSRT
Sequence of Hck (P08631 whole entry, looked up): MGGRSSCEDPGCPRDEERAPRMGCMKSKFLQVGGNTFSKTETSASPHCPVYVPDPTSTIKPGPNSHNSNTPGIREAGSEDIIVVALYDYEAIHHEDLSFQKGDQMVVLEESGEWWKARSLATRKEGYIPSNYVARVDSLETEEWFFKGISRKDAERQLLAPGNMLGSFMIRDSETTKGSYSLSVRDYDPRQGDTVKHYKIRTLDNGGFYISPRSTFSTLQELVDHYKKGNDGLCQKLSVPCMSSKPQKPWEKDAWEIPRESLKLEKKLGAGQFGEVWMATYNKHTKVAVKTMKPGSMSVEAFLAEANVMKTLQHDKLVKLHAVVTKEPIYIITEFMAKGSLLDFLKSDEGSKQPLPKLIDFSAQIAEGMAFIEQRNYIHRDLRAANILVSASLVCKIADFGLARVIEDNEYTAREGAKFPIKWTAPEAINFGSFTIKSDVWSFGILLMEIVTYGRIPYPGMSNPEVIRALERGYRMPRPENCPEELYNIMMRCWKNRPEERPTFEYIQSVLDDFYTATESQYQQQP
Sequence of Jak2 (O60674 whole entry, looked up): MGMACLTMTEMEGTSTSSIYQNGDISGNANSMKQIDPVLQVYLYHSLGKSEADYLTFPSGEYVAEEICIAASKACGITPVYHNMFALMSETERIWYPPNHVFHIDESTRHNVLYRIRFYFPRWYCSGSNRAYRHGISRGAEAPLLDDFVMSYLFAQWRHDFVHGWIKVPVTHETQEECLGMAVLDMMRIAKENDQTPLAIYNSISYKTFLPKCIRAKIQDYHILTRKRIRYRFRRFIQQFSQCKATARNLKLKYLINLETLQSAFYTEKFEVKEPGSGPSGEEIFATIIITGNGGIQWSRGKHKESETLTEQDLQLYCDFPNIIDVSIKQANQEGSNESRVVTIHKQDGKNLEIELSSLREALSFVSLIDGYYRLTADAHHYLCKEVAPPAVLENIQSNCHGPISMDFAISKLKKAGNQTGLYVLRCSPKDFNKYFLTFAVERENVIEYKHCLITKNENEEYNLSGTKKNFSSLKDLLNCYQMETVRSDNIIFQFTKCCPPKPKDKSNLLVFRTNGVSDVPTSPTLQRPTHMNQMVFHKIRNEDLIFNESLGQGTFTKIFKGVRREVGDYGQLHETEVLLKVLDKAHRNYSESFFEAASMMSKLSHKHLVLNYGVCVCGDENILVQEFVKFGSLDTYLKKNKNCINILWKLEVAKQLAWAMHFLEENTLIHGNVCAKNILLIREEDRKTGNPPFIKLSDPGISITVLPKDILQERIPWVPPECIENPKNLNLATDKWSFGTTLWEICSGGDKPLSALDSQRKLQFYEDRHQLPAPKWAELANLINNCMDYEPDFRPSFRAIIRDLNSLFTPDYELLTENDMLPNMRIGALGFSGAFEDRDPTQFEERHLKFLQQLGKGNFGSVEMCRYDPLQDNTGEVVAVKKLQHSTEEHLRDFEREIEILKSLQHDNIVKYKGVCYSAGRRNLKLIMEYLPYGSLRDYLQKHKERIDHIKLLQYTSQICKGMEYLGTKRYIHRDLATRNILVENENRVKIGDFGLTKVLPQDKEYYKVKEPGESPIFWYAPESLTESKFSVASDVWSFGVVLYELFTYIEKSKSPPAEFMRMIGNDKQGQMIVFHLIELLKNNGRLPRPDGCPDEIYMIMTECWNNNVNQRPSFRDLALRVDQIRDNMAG
Sequence of Fyn (P06241 whole entry, looked up): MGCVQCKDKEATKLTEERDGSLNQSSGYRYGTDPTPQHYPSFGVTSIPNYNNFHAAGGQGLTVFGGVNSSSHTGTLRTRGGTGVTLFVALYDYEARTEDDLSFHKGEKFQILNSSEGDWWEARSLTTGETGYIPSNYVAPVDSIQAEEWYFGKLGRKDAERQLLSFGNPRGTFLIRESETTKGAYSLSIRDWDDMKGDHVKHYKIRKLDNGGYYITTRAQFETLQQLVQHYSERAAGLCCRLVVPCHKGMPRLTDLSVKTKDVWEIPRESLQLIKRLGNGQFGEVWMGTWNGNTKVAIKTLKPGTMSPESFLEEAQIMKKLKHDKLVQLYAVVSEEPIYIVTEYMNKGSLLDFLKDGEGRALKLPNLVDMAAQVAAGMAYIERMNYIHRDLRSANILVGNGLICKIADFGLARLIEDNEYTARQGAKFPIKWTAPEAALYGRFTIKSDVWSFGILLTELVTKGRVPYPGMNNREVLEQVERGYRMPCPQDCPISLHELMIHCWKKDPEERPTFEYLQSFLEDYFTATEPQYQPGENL
Sequence of Grb2 SH2 (P62993 whole entry, looked up): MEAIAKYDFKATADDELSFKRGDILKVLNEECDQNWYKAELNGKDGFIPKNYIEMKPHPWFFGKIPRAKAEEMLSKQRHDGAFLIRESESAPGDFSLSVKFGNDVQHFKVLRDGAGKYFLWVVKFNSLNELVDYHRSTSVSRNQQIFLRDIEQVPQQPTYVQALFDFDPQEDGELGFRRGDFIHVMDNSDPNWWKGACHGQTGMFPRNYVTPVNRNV

Row | Sequence | phosphorylation enrichment (AncSZ) | phosphorylation enrichment (EPHB1) | phosphorylation enrichment (EPHB2) | phosphorylation enrichment (FGFR1) | phosphorylation enrichment (FGFR3) | phosphorylation enrichment (Fer (mouse)) | phosphorylation enrichment (Fes) | phosphorylation enrichment (Fyn) | phosphorylation enrichment (Hck) | phosphorylation enrichment (Jak2) | phosphorylation enrichment (MERTK) | phosphorylation enrichment (c-Abl (mouse)) | phosphorylation enrichment (c-Src) | SH2 binding enrichment (Grb2 SH2) | SH2 binding enrichment (SHP2-C SH2) | SH2 binding enrichment (c-Src SH2)
1 | ATHRGYDSDNP [MMUT_Y146] | 0.586 | 0.342 | 0.444 | 0.377 | 0.472 | 0.418 | 0.731 | 0.404 | 0.471 | 0.523 | 0.363 | 0.548 | 0.365 | 0.998 | 0.533 | 0.536
2 | HNQDGYSYPSR [LDLR_Y845] | 1.25 | 0.55 | 0.584 | 0.614 | 0.886 | 0.738 | 0.826 | 0.836 | 0.618 | 0.831 | 0.913 | 0.823 | 0.661 | 1.07 | 0.707 | 6.74
3 | HSDFQYGQRSQ [PKP2_Y168_S169G_YF] | 0.641 | 0.632 | 0.628 | 0.495 | 0.639 | 0.78 | 1.25 | 0.766 | 0.587 | 0.727 | 0.511 | 0.509 | 0.682 | 0.737 | 0.675 | 0.394
4 | KRTFEYEADKN [DENND2B_Y396] | 0.947 | 0.545 | 0.526 | 0.507 | 0.576 | 0.496 | 1.03 | 0.471 | 0.483 | 0.781 | 0.403 | 0.61 | 0.39 | 0.747 | 0.702 | 0.576
5 | FSKDNYKRVTG [PANK2_Y405_YF] | 0.397 | 0.409 | 0.412 | 0.407 | 0.393 | 0.394 | 0.452 | 0.401 | 0.396 | 0.409 | 0.383 | 0.416 | 0.369 | 0.719 | 0.502 | 0.406
6 | HKLSYNEYDFE [BTK_Y40_Y40N] | 1.27 | 0.986 | 0.824 | 0.756 | 0.822 | 0.473 | 1.13 | 3.26 | 0.74 | 0.968 | 0.427 | 0.593 | 2.02 | 1.14 | 0.412 | 0.79
7 | PQGVSYIFTID [DCX_Y103_R102S_YF] | 0.94 | 0.726 | 0.692 | 0.456 | 0.893 | 0.495 | 1.74 | 0.729 | 0.509 | 1.48 | 0.591 | 0.812 | 0.486 | 0.902 | 1.73 | 0.553
8 | SHNELYFEEAE [VANGL1_Y344_YF] | 1.09 | 0.568 | 0.619 | 0.68 | 1.02 | 0.693 | 1.21 | 0.67 | 0.633 | 1.23 | 0.556 | 0.671 | 0.492 | 0.941 | 0.71 | 0.46
9 | TQRPHYKGGGG [TYROBP_Y112_Y111H] | 0.558 | 0.349 | 0.587 | 0.45 | 0.76 | 0.565 | 0.686 | 0.496 | 0.535 | 0.676 | 0.433 | 0.97 | 0.454 | 1.55 | 1.39 | 1.27
10 | IYLADCRIMEG [ALOX12B_Y318_Y318C] | 1.27 | 0.693 | 0.932 | 0.648 | 0.842 | 0.65 | 1.36 | 0.684 | 0.691 | 0.95 | 0.556 | 0.869 | 0.559 | 0.821 | 0.671 | 0.45
11 | SLLTDDSPQLQ [OTC_Y345_Y345D] | 1.14 | 0.928 | 0.548 | 0.491 | 0.764 | 0.444 | 1.29 | 0.407 | 0.481 | 1.22 | 0.538 | 0.923 | 0.453 | 0.746 | 0.49 | 0.413
12 | LHAALYERKLL [TTLL5_Y542] | 1.43 | 1.27 | 0.798 | 0.896 | 1.13 | 0.63 | 1.91 | 1.12 | 0.772 | 1.04 | 0.544 | 0.934 | 0.479 | 0.621 | 0.835 | 0.622
13 | NLSVHYDSSLK [ABCC8_Y1353_R1352H] | 0.952 | 0.579 | 0.82 | 0.522 | 0.603 | 0.437 | 0.922 | 0.424 | 0.453 | 0.612 | 0.339 | 0.548 | 0.342 | 0.793 | 0.547 | 0.509
14 | DELDKYSEALK [TPM1_Y60] | 1.19 | 0.469 | 0.577 | 0.451 | 0.59 | 0.472 | 1.03 | 0.443 | 0.489 | 0.977 | 0.395 | 0.676 | 0.422 | 0.889 | 0.554 | 0.655
15 | VPDANYTSDEE [STK33_Y439] | 1.54 | 0.649 | 0.801 | 0.699 | 0.796 | 0.658 | 1.38 | 0.701 | 0.61 | 1.19 | 0.621 | 2.42 | 0.586 | 0.885 | 1.11 | 0.726
16 | DILASYLDKVR [KRT12_Y139_R135I] | 0.54 | 0.364 | 0.437 | 0.407 | 0.594 | 0.284 | 0.96 | 0.457 | 0.403 | 0.505 | 0.364 | 0.37 | 0.375 | 0.952 | 0.824 | 0.656
17 | HDRGNYVRLNM [RECQL4_Y353] | 0.944 | 2.3 | 1.35 | 0.711 | 0.943 | 0.671 | 1.3 | 0.993 | 0.765 | 1.09 | 0.837 | 0.929 | 0.592 | 0.95 | 2.16 | 1.32

Row | Sequence | phosphorylation enrichment (AncSZ) | phosphorylation enrichment (EPHB1) | phosphorylation enrichment (EPHB2) | phosphorylation enrichment (FGFR1) | phosphorylation enrichment (FGFR3) | phosphorylation enrichment (Fer (mouse)) | phosphorylation enrichment (Fes) | phosphorylation enrichment (Fyn) | phosphorylation enrichment (Hck) | phosphorylation enrichment (Jak2) | phosphorylation enrichment (MERTK) | phosphorylation enrichment (c-Abl (mouse)) | phosphorylation enrichment (c-Src) | SH2 binding enrichment (Grb2 SH2) | SH2 binding enrichment (SHP2-C SH2) | SH2 binding enrichment (c-Src SH2)
18 | NNRVFYDNSDR [RS1_Y177_G178D] | 0.603 | 0.412 | 0.442 | 0.435 | 0.471 | 0.471 | 0.628 | 0.45 | 0.4 | 0.499 | 0.42 | 0.453 | 0.409 | 0.883 | 0.744 | 0.675
19 | YPKARYHWLVL [APTX_Y214] | 0.95 | 0.507 | 0.552 | 0.582 | 0.67 | 0.539 | 1.08 | 0.429 | 0.493 | 0.941 | 0.482 | 0.707 | 0.383 | 1.54 | 1.46 | 1.2
20 | SDGHEYIYVDR [PDGFRB_Y579_P584R] | 1.33 | 0.663 | 0.645 | 2.04 | 1.43 | 0.514 | 0.995 | 1.11 | 1.12 | 1.01 | 0.514 | 0.513 | 1.6 | 0.9 | 0.579 | 0.712
21 | LLREWYMIFSR [HUWE1_Y4066_I4069F] | 2.11 | 1.07 | 1.57 | 0.713 | 1.14 | 0.943 | 2 | 0.755 | 0.915 | 2.17 | 0.932 | 1.8 | 1.45 | 1.21 | 1.05 | 0.852
22 | LEQRPYRRESE [KCNJ12_Y427] | 0.746 | 0.591 | 0.643 | 0.333 | 0.666 | 0.367 | 1.01 | 0.91 | 0.52 | 0.461 | 0.618 | 0.519 | 0.385 | 0.621 | 0.945 | 0.267
23 | YFRDGCMPRQY [GSS_Y270_Y270C] | 0.938 | 0.602 | 0.552 | 0.6 | 0.883 | 0.505 | 0.948 | 0.43 | 0.438 | 0.833 | 0.406 | 0.72 | 0.364 | 1.08 | 0.637 | 0.499
24 | VGNAAYQAGPL [STK36_Y1181] | 0.553 | 0.358 | 0.437 | 0.407 | 0.472 | 0.392 | 0.556 | 0.458 | 0.378 | 0.592 | 0.386 | 0.531 | 0.429 | 0.774 | 0.499 | 0.42
25 | FLAAIYPTVGQ [NF1_Y2508_T2507I_YF] | 0.724 | 0.58 | 0.358 | 0.473 | 0.583 | 0.382 | 0.943 | 0.39 | 0.477 | 0.798 | 0.406 | 0.389 | 0.442 | 1.01 | 0.641 | 0.759
26 | SQAPGYSYTAA [CYCS_Y47_G42S] | 0.637 | 0.466 | 0.408 | 0.593 | 0.43 | 0.499 | 0.666 | 0.454 | 0.422 | 0.765 | 0.45 | 0.708 | 0.594 | 0.763 | 0.631 | 1.07
27 | AIFRRYSKFFD [SH3PXD2B_Y45_YF] | 1.03 | 0.526 | 0.565 | 0.598 | 0.587 | 0.408 | 1.13 | 0.582 | 0.54 | 1.04 | 0.572 | 0.773 | 0.626 | 0.56 | 0.572 | 0.475
28 | NDFGNYNNQSS [HNRNPA1_Y318] | 0.523 | 0.392 | 0.352 | 0.417 | 0.419 | 0.322 | 0.695 | 0.333 | 0.417 | 0.49 | 0.285 | 0.874 | 0.343 | 0.826 | 0.68 | 0.537
29 | VIEQSYNETWL [SLC2A4_Y56] | 1.17 | 0.567 | 0.645 | 0.621 | 0.827 | 1.25 | 1.23 | 0.558 | 0.512 | 1.1 | 0.436 | 0.803 | 0.572 | 0.713 | 0.68 | 0.535
30 | KTEMLYHLTAR [XRCC2_Y59] | 1.09 | 0.53 | 0.541 | 0.821 | 0.858 | 0.419 | 0.982 | 0.73 | 0.977 | 0.928 | 2.06 | 0.897 | 0.965 | 0.903 | 0.773 | 0.676
31 | DFNPNYCFAGK [ALK_Y1096_YF] | 1.67 | 1.72 | 0.989 | 0.742 | 0.887 | 0.742 | 1.28 | 0.549 | 0.444 | 1.21 | 1.04 | 0.921 | 0.684 | 0.792 | 0.625 | 0.533
32 | EVQKNYEHLFK [PAM16_Y77] | 0.706 | 0.57 | 0.479 | 0.4 | 0.517 | 0.436 | 0.715 | 0.398 | 0.438 | 0.8 | 0.318 | 0.632 | 0.359 | 0.897 | 0.77 | 0.634
33 | GAPATYKGDAR [CACNA1A_Y1013_E1014K] | 0.432 | 0.332 | 0.422 | 0.419 | 0.452 | 0.319 | 0.52 | 0.366 | 0.384 | 0.489 | 0.384 | 0.568 | 0.401 | 1.09 | 1.17 | 0.483
